Experimental data published in patent US6566088B1, “Prolyl-4-hydroxylases” (Board of Regents, The University of Texas System, priority 2001, dated 2003).

B1: HPH 1: human HIF prolyl hydroxylase 1, SEQ ID NO:1, Genbank XM_012332 (protein)
chain: MPLGHIMRLDLEKIALEYIVPCLHEVGFCYLDNFLGEVVGDCVLERVKQLHCTGALRDGQLAGPRAGVSKRHLRGDQITWIGGNEEGCEAISFLLSLIDRLVLYCGSRLGKYYVKERSKAMVACYPGNGTGYVRHVDNPNGDGRCITCIYYLNKNWDAKLHGGILRIFPEGKSFIADVEPIFDRLLFFWSDRRNPHEVQPSYATRYAMTVWYFDAEERAEAKKKFRNLTRKTESALTED
modifications: human
B2: H196A: HPH 1 with His196 changed to alanine (protein)
chain: MPLGHIMRLDLEKIALEYIVPCLHEVGFCYLDNFLGEVVGDCVLERVKQLHCTGALRDGQLAGPRAGVSKRHLRGDQITWIGGNEEGCEAISFLLSLIDRLVLYCGSRLGKYYVKERSKAMVACYPGNGTGYVRHVDNPNGDGRCITCIYYLNKNWDAKLHGGILRIFPEGKSFIADVEPIFDRLLFFWSDRRNPAEVQPSYATRYAMTVWYFDAEERAEAKKKFRNLTRKTESALTED
modifications: left off: small tags and cut ends
B3: H135A: HPH 1 with His135 changed to alanine (protein)
chain: MPLGHIMRLDLEKIALEYIVPCLHEVGFCYLDNFLGEVVGDCVLERVKQLHCTGALRDGQLAGPRAGVSKRHLRGDQITWIGGNEEGCEAISFLLSLIDRLVLYCGSRLGKYYVKERSKAMVACYPGNGTGYVRAVDNPNGDGRCITCIYYLNKNWDAKLHGGILRIFPEGKSFIADVEPIFDRLLFFWSDRRNPHEVQPSYATRYAMTVWYFDAEERAEAKKKFRNLTRKTESALTED
modifications: left off: small tags and cut ends
B4: D137A: HPH 1 with Asp137 changed to alanine (protein)
chain: MPLGHIMRLDLEKIALEYIVPCLHEVGFCYLDNFLGEVVGDCVLERVKQLHCTGALRDGQLAGPRAGVSKRHLRGDQITWIGGNEEGCEAISFLLSLIDRLVLYCGSRLGKYYVKERSKAMVACYPGNGTGYVRHVANPNGDGRCITCIYYLNKNWDAKLHGGILRIFPEGKSFIADVEPIFDRLLFFWSDRRNPHEVQPSYATRYAMTVWYFDAEERAEAKKKFRNLTRKTESALTED
modifications: left off: small tags and cut ends
B5: HPH 2: human HPH 1 paralog, Genbank AF229245; splice-variant in which residues 76-177 are omitted was used (protein)
chain: ANDSGGPGGPSPSERDRQYCELCGKMENLLRCSRCRSSFYCCKEHQRQDWKKHKLVCQGSEGALGHGVGPHQHSGPAPPAAVPPPRAGAREPRKAAARRDNASGDAAKGKVKAKPPADPAAAASPCRAAAGGQGSAVAAEAEPGKEEPPARSSLFQEKANLYPPSNTPGDALSPGGGLRPNGQTKPLPALKLALEYIVPCMNKHGICVVDDFLGKETGQQIGDEVRALHDTGKFTDGQLVSQKSDSSKDIRGDKITWIEGKEPGCETIGLLMSSMDDLIRHCNGKLGSYKINGRTKAMVACYPGNGTGYVRHVDNPNGDGRCVTCIYYLNKDWDAKVSGGILRIFPEGKAQFADIEPKFDRLLFFWSDRRNPHEVQPAYATRYAITVWYFDADERARAKVKYLTGEKGVRVELNKPSDSVGKDVF
modifications: left off: small tags and cut ends

Legend:
[1] = test system: HIF-1a activation of the HRE-driven reporter; assay: Hypoxia-responsive (HRE) luciferase reporter co-transfection in 293 cells; assay type: cell-based, human
Description: To test whether these HPH enzymes represent part of the hypoxic response pathway in vivo we first co-transfected (21) human embryonic kidney 293 cells with a hypoxia-responsive luciferase reporter (22) and increasing amounts of a vector expressing human HIF-1a under the control of the constitutive CMV promoter. Forced overexpression of HIF-1a can overcome the degradation pathway, resulting in accumulation of the HIF transcription factor under normoxic conditions and subsequent induction of the HRE-containing HIF reporter gene (22). […] Mutation of His^135, Asp^137 or His^196 to alanine eliminated the interfering activity of HPH 1 in these transfection assays. […] Finally, the ability of HPH 1 to diminish induction of the HIF-responsive luciferase reporter was lost when cells were incubated in an atmosphere containing 0.5% O2.
21. Transfection experiments were performed as in (22) with DNA amounts indicated in the text. Western blot analysis using an antibody specific for the carboxy-terminal V5 tag was used to confirm expression of each polypeptide following transfection of 1 μg of each expression vector.

human HIF-1a ODD peptide = human HIF-1a ODD peptide (Homo sapiens, UniProt Q16665, M561A/M568A); assay: [35S]-pVHL pull-down prolyl hydroxylase assay with biotinylated HIF-1a ODD peptide; assay type: biochemical; details: for prolyl hydroxylase activity (pVHL association with the biotinylated peptide): enzyme in vitro transcribed/translated in rabbit reticulocyte lysate, ascorbate, 2-oxoglutarate, FeSO4 present
[2] = test system: CMV-driven luciferase reporter; assay: Constitutive CMV-driven luciferase reporter co-transfection; assay type: cell-based, human
[3] = test system: transfected cell cultures; assay: Visual inspection of cell cultures transfected with HPH 1 expression vector

| Molecule | prolyl hydroxylase activity (pVHL association with the biotinylated peptide) (human HIF-1a ODD peptide) | other results |
| --- | --- | --- |
| B1 | able to enhance pVHL association | effect on induction of the HIF-dependent luciferase reporter ([1]; 293 cells, normoxic, 30 ng or 100 ng HIF-1a expression vector, 3 ng CMV-driven vector): able to attenuate; ability to diminish induction of the HIF-responsive luciferase reporter ([1]; atmosphere containing 0.5% O2): lost; effect on CMV-driven luciferase reporter expression [2]: did not attenuate; programmed cell death [3]: no overt evidence of programmed cell death |
| B2 | eliminated the prolyl hydroxylase activity | – |
| B3 | eliminated the prolyl hydroxylase activity | – |
| B4 | eliminated the prolyl hydroxylase activity | – |
| B5 | catalyze the hydroxylation | hydroxylation of the HIF-1a peptide substrate (human HIF-1a ODD peptide; enzyme expressed in bacterial cells and purified by affinity chromatography): able to hydroxylate |
